Experiment [1] addresses T1, recombinant human GPC2-His protein (human, UniProt Q8N158 24-554, limits assumed).
T1 construct: Bought protein; The SPR paragraph gives no catalogue number for GPC2-His; also called recombinant Human Glypican 2 Protein; recombinant human GPC2 protein; not shown: His tag
T1 sequence (looked up): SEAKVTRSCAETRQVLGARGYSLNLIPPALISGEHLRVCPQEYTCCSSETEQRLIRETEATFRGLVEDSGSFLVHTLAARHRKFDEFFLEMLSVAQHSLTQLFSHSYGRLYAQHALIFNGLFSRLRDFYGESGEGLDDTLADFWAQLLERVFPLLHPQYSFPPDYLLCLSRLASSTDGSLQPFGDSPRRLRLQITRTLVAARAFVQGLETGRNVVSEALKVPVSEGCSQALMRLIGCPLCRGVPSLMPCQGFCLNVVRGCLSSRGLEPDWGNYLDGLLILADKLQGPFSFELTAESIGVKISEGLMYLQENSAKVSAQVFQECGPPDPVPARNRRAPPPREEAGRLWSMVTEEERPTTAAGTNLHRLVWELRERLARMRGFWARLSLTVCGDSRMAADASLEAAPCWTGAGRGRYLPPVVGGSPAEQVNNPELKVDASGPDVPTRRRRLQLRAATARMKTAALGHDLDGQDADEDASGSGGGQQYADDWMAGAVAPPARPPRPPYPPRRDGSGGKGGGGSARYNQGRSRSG
Put plainly: SPR, Biacore T200, GPC2-His amine-coupled to CM5 chip, VHH-hIgG1Fc as analyte, 1:1 model. How it is done: Each of the exemplary anti-GPC2 VHH sequences was cloned into a vector comprising a human IgG1Fc fragment (hlgG1Fc) sequence to facilitate recombinant expression of anti-GPC2 VHH-hlgG1Fc. Recombinant proteins were obtained and purified for SPR assays. The affinity of each anti-GPC2 VHH-hIgG1Fc for GPC2 was determined by SPR using a BIACORE® T200 analytical system (GE Healthcare). Briefly, recombinant human GPC2-His protein was covalently coupled to a CM5(s) sensor chip using an amine coupling kit. Exemplary VHH-hIgG1Fc proteins were serially diluted in running buffer (10 mM HEPES, 150 mM NaCl, 3 mM EDTA, 0.05% Tween-20, pH 7.4) and injected over the chip cell at a flowrate of 100 μL/min for 100 seconds followed by buffer-only injection for 300 seconds to allow for antibody dissociation. The dissociation […] (KD) were determined using the BIACORE® T200 evaluation software version 3.0 (Langmuir binding, local fit, 1:1 binding model).
In general terms: SPR reads the build-up and loss of mass on a sensor chip optically.

For experiment [2], the target named is T2, recombinant human GPC1-His (human, UniProt P35052 24-530, limits assumed).
T2 construct: Bought protein; also called RD System Cat #4519-GP; not shown: His tag
T2 sequence (looked up): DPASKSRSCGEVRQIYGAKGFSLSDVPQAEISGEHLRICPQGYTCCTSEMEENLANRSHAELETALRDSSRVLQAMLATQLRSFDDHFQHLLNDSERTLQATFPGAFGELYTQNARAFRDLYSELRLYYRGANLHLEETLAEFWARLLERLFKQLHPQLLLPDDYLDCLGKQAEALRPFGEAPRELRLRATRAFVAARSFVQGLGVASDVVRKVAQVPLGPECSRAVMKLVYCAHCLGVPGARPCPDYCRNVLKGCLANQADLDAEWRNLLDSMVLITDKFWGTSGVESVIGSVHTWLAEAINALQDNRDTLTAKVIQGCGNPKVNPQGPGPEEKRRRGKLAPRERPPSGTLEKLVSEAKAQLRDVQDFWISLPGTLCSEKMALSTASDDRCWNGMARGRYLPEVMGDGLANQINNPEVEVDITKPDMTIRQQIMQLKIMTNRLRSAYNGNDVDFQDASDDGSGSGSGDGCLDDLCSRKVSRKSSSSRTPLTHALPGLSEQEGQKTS
Briefly: ELISA, plate coated with 2 ug/mL rhGPC1-his, VHH-hIgG1Fc detected with HRP goat anti-human IgG, OD450. How it is done:
To evaluate the specificity of humanized anti-GPC2 VHH5 to recombinant human GPC2 protein, an ELISA-based binding assay was conducted to determine the differential target proteins binding of anti-GPC2 VHH5. Briefly, microplates were coated with 2 μg/mL recombinant human GPC1-His (RD System, Cat #4519-GP), GPC2-His (RD System, Cat #2304-GP), GPC3-His (ACRO, Cat #GP3-H5223), GPC4-Fc (RD System, Cat #9195-GP), GPC5-His (RD System, Cat #2607-G5/CF), GPC6-His (RD System, Cat #2845-GP) or recombinant mouse GPC2-His (RD System, Cat #2355-GP) proteins. Recombinant human protein coated plates were blocked with skim milk. Serially diluted humanized VHH-hIgG1Fc recombinant antibodies were added to each well of the plates and incubated at 4° C. for 1.5 h. Samples were further labelled with HRP-conjugated goat anti human IgG (H+L) secondary antibody (Genescript, Cat #A00166-1) and signal was developed with 3,3′,5,5′-Tetramethylbenzidine (TMB) substrate according to manufacturer's instruction. For the GPC4, VHH-His recombinant antibodies and anti-His tag secondary antibody (Genescript, Cat #A00612) were added to the GPC4-Fc coated plates instead. Optic density at 450 nm was measured by plate reader.
(In general: In an ELISA, binding on a coated surface is turned into a signal by an enzyme label.)

What is called Kd is the equilibrium constant for the complex coming apart. In general, koff refers to a measure of how fast the partners let go of each other. Usually kon stands for a measure of how fast the partners come together.

B1: AS70950VH6-hIgG1Fc (Fc fusion)
chain: EVQLVESGGGLVQPGGSLRLSCAISEFTYKNTCVGWFRQAPGKGREGVAAIDSDGNTNYVDSVKGRFTISQDNSKNTVYLQMNSLRAEDTAMYYCAAGAYCGRLLLWIGNYAYWGQGTLVTVSS
notes: also called anti-GPC2 VHH-hIgG1Fc; not shown: human IgG1 Fc fragment (hIgG1Fc)
Regarding B1, in experiment [1], the Kd came to 0.27 nM, the koff was 0.00011 s⁻¹ and the kon came to 390000 M⁻¹ s⁻¹. Moreover, the binding result in experiment [2] is “no binding (tested: about 300 nM)”.

B2: AS79236VH6-hIgG1Fc (Fc fusion)
chain: EVQLVESGGGLVQPGGSLRLSCAVSGYTYSSYCMAWFRQAPGKGLEGVASIDAGGRTTYVDSVKGRFTISKDNAKNSLYLQMNSLRAEDTAMYYCAVDVRTRCGGTWDGEAVYFPYWGQGTLVTVSS
notes: as for B1
Take B2: in experiment [1], the Kd was determined as 0.37 nM, the koff came to 0.00019 s⁻¹ and the association rate constant (kon) was determined as 530000 M⁻¹ s⁻¹. Besides, the binding result in experiment [2] is reported as “no binding (tested: about 300 nM)”.

B3: AS78117VH4-hIgG1Fc (Fc fusion)
chain: EVQLVESGGGLVQPGGSLRLSCIVSRYTYATYSMAWFRQAPGKGLEGVSGLDSVGATGYAESVKGRFTISRDNSKNTLYLQMNSLRAEDTAVYYCVVDPASAKVTYGSWSTPSYAYWGQGTLVTVSS
notes: as for B1
For B3, in experiment [1], the Kd amounted to 0.82 nM, the koff stood at 0.00017 s⁻¹ and the kon stood at 200000 M⁻¹ s⁻¹. Further, the binding result in experiment [2] is “no binding (tested: about 300 nM)”.
